Tests used:
AncSZ = assay: phosphorylation enrichment, bacterial display (enrichment ratio); higher = better substrate or ligand; peptides without Tyr show the background
Hck = Hck (UniProt P08631); assay: as above
MERTK = MERTK (UniProt Q12866); assay: as above
EPHB2 = EPHB2 (UniProt P29323); assay: as above
Fyn = Fyn (UniProt P06241); assay: as above
FGFR1 = FGFR1 (UniProt P11362); assay: as above
Fes = Fes (UniProt P07332); assay: as above
c-Src = assay: as above
Jak2 = Jak2 (UniProt O60674); assay: as above
c-Abl (mouse) = assay: as above
FGFR3 = FGFR3 (UniProt P22607); assay: as above
Fer (mouse) = assay: as above
EPHB1 = EPHB1 (UniProt P54762); assay: as above
SHP2-C SH2 = assay: SH2 binding enrichment of the phosphorylated peptide, bacterial display (enrichment ratio); higher = better substrate or ligand; peptides without Tyr show the background
c-Src SH2 = assay: as above
Grb2 SH2 = Grb2 SH2 (UniProt P62993); assay: as above
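For SH2 binding enrichment of the phosphorylated peptide, bacterial display in this document: peptide library displayed on the E. coli surface as eCPX fusions, selected cells deep-sequenced, score is each peptide's frequency after selection divided by its frequency in the input.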
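For phosphorylation enrichment, bacterial display in this document: 11-residue human phosphosite peptides and single-mutation variants displayed on the E. coli surface, counted by deep sequencing, each peptide's frequency after selection divided by its frequency in the unselected input library; frequency after pTyr selection over input frequency; kinase dosed for 20-30% of maximal phosphorylation in three min.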

Sequence of EPHB1 (P54762 whole entry, looked up): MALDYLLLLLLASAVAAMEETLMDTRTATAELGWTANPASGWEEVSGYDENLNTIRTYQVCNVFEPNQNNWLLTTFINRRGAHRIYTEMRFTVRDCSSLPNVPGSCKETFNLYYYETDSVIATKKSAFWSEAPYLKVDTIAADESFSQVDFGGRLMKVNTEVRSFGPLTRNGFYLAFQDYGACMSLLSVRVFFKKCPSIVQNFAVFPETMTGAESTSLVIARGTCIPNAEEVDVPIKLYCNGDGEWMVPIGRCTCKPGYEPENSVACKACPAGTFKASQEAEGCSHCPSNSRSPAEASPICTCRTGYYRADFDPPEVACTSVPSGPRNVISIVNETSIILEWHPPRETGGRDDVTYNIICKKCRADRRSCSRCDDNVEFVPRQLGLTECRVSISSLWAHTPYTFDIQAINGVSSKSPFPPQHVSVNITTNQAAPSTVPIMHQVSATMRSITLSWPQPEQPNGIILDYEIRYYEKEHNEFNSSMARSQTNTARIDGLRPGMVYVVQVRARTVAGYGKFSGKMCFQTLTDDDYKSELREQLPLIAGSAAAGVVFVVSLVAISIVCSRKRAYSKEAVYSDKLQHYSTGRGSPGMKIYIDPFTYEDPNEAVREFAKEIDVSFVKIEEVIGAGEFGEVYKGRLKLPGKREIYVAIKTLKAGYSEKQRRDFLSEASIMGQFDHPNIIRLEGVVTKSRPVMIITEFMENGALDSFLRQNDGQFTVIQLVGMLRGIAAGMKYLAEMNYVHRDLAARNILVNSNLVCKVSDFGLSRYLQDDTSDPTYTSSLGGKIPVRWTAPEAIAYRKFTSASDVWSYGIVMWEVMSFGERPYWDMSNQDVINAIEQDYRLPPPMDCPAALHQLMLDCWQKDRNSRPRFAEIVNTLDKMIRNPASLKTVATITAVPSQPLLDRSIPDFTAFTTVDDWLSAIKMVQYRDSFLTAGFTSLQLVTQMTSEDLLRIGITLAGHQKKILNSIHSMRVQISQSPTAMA
Sequence of FGFR3 (P22607 whole entry, looked up): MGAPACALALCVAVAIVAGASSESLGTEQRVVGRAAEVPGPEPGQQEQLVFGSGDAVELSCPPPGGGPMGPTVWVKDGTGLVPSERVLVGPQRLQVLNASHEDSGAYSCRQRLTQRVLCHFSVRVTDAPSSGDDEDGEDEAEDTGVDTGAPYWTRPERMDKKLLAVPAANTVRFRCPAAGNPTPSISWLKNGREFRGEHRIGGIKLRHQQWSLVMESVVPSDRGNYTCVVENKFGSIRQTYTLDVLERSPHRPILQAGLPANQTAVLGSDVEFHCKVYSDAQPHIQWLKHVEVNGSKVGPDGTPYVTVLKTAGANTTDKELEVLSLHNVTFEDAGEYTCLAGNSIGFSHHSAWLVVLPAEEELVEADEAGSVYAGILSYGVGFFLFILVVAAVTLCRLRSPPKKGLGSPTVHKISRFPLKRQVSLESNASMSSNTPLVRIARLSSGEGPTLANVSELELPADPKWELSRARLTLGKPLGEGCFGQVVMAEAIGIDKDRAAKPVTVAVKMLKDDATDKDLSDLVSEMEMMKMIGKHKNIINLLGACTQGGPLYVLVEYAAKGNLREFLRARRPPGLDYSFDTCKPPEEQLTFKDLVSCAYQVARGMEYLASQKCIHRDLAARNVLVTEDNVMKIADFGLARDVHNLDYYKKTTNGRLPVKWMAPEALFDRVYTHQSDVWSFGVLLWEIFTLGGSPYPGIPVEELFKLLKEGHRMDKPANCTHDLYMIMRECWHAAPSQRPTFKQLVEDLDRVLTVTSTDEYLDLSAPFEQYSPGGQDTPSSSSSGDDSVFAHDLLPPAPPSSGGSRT
Sequence of Jak2 (O60674 whole entry, looked up): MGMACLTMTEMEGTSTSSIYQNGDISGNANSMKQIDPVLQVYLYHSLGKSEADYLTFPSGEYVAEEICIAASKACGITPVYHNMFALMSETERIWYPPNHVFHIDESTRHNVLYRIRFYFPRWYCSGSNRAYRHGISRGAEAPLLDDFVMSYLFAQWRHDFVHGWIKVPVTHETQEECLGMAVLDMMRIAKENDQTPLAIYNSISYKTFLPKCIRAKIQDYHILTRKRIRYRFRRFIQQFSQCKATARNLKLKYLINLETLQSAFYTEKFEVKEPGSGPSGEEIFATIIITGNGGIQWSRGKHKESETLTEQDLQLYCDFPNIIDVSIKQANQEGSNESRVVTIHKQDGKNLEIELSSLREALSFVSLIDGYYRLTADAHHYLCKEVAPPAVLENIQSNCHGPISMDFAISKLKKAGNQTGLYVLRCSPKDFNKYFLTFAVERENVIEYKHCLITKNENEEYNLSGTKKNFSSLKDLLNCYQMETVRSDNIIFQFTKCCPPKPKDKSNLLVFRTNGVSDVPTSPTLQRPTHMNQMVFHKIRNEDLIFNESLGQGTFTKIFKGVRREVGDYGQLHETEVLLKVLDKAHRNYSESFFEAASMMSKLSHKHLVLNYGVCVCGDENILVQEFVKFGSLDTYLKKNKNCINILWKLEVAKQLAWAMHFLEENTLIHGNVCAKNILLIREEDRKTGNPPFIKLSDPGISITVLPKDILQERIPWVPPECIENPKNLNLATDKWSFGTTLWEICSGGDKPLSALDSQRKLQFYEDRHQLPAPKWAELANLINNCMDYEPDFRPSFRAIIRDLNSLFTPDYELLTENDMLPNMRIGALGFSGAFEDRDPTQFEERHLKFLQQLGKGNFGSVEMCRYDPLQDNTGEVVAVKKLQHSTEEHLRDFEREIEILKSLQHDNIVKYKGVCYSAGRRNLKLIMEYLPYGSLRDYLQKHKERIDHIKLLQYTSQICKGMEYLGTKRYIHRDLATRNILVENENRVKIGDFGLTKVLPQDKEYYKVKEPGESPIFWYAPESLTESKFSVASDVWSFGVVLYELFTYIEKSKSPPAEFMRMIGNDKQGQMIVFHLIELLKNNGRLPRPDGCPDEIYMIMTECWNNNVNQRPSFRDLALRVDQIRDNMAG
Sequence of Grb2 SH2 (P62993 whole entry, looked up, the tested form may be a part): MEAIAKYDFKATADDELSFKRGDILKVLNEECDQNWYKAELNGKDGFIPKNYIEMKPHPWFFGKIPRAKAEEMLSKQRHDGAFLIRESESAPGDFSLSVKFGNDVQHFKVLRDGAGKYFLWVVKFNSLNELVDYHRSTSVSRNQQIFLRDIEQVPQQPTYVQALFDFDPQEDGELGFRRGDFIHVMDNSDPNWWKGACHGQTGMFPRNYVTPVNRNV
Sequence of Fyn (P06241 whole entry, looked up): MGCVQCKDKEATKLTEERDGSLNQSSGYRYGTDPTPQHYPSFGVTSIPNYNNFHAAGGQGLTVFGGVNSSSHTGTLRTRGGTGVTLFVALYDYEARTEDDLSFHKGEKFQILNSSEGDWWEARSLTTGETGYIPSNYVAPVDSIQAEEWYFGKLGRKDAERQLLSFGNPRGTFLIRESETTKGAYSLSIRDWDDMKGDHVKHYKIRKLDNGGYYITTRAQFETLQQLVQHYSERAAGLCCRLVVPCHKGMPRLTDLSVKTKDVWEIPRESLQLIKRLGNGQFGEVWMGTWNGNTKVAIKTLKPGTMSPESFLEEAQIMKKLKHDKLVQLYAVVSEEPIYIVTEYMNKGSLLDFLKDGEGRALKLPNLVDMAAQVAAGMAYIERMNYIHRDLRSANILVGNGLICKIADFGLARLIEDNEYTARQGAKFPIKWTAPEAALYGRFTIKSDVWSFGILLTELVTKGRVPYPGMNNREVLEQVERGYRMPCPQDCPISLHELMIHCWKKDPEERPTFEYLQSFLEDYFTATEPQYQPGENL
Sequence of EPHB2 (P29323 whole entry, looked up): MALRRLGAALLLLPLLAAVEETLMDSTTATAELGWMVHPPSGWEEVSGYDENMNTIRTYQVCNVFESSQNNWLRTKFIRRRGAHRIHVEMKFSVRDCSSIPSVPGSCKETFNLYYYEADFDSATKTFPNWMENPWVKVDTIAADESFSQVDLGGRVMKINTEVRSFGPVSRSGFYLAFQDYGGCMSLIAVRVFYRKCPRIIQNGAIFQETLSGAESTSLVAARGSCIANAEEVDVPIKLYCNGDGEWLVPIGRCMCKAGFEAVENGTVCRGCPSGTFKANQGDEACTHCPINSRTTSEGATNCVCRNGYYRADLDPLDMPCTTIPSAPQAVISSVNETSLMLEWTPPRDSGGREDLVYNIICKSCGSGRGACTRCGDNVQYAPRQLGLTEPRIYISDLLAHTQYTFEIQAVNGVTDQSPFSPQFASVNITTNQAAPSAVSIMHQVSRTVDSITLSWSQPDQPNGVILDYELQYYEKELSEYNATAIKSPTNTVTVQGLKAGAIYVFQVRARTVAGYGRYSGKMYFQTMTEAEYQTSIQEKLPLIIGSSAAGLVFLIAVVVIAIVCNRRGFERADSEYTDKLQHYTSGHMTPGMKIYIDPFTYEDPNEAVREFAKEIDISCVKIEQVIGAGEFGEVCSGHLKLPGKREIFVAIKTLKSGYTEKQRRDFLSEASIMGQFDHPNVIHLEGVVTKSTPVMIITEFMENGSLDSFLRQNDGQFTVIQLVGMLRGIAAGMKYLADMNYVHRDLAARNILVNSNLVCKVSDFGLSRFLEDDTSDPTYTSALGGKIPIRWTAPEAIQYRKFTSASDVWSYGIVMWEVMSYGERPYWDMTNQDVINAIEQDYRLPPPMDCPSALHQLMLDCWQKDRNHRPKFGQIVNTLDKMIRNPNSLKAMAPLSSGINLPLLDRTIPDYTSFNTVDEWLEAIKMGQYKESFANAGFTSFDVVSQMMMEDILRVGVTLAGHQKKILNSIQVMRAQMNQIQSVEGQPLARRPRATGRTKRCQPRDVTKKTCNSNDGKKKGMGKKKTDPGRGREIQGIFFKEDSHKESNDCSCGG

Row | Sequence | phosphorylation enrichment (AncSZ) | phosphorylation enrichment (Hck) | phosphorylation enrichment (MERTK) | phosphorylation enrichment (EPHB2) | phosphorylation enrichment (Fyn) | phosphorylation enrichment (FGFR1) | phosphorylation enrichment (Fes) | phosphorylation enrichment (c-Src) | phosphorylation enrichment (Jak2) | phosphorylation enrichment (c-Abl (mouse)) | phosphorylation enrichment (FGFR3) | phosphorylation enrichment (Fer (mouse)) | phosphorylation enrichment (EPHB1) | SH2 binding enrichment (SHP2-C SH2) | SH2 binding enrichment (c-Src SH2) | SH2 binding enrichment (Grb2 SH2)
1 | ISSLLYELLEE [TRPC6_Y896_R895L] | 1.94 | 3.25 | 6.1 | 4.5 | 2.14 | 0.953 | 1.94 | 3.33 | 1.21 | 1.31 | 1.35 | 7.37 | 7.24 | 0.619 | 0.576 | 1.04
2 | EEAAGCAQESQ [CAMKV_Y491_Y491C] | 1.15 | 0.575 | 0.625 | 0.591 | 0.491 | 0.527 | 1.23 | 0.491 | 1.06 | 1.18 | 0.833 | 0.657 | 0.645 | 0.837 | 0.79 | 0.974
3 | LAETSYVTVLE [MAGEA1_Y276_K278T] | 1.65 | 0.862 | 0.708 | 0.968 | 0.702 | 0.915 | 1.65 | 0.496 | 1.02 | 0.903 | 1.31 | 0.67 | 0.674 | 2.48 | 1.25 | 0.73
4 | NFFEFYVDDPL [GCHFR_Y48_P53L_YF] | 1.09 | 0.439 | 0.413 | 0.52 | 0.436 | 0.501 | 1.11 | 0.489 | 1.07 | 0.78 | 0.874 | 0.428 | 0.773 | 0.585 | 0.485 | 0.686
5 | YGSSSYRGAGG [RPA2_Y14_G15R] | 0.491 | 0.443 | 0.369 | 0.334 | 0.386 | 0.343 | 0.483 | 0.412 | 0.528 | 0.623 | 0.409 | 0.465 | 0.393 | 0.507 | 0.49 | 0.877
6 | RKVAQYMLENE [SLC16A6_Y224_E221V] | 0.876 | 0.718 | 0.465 | 0.901 | 0.716 | 0.648 | 0.859 | 0.389 | 1.03 | 0.506 | 0.933 | 0.861 | 0.612 | 0.617 | 0.697 | 0.697
7 | FQASFYRRGDR [LTK_Y677_R673Q_YF] | 0.717 | 0.501 | 0.511 | 0.486 | 0.55 | 0.532 | 0.688 | 0.525 | 0.441 | 0.647 | 0.523 | 0.495 | 0.443 | 0.38 | 0.295 | 0.411
8 | KIVQDYLEKFF [MMP8_Y36_T32I_YF] | 1.19 | 0.773 | 0.512 | 0.595 | 0.614 | 0.616 | 1.38 | 0.556 | 1.02 | 0.956 | 0.808 | 0.65 | 0.662 | 1.19 | 0.691 | 1.08
9 | FGEFRYRSVIK [CFTR_Y517_D513G_YF] | 0.728 | 0.565 | 0.409 | 0.559 | 0.409 | 0.44 | 0.891 | 0.426 | 0.744 | 0.574 | 0.541 | 0.396 | 0.558 | 0.426 | 0.423 | 0.567
10 | RQRTAYFSLNT [CDH1_Y68_D72N] | 0.794 | 0.423 | 0.566 | 0.68 | 0.699 | 0.586 | 1.1 | 0.667 | 1.34 | 0.77 | 0.745 | 0.552 | 0.661 | 14.9 | 0.871 | 0.901
11 | PTTMTYFPHFD [HBA1_Y43_K41M] | 0.823 | 0.951 | 0.802 | 0.577 | 0.554 | 2.97 | 1.01 | 0.754 | 1.61 | 0.859 | 2.32 | 0.521 | 0.603 | 0.782 | 0.658 | 1.13
12 | IHFAIYLLKYS [ARMC9_Y107] | 1.09 | 0.463 | 0.425 | 0.59 | 0.516 | 0.368 | 1.16 | 0.446 | 0.917 | 0.753 | 0.686 | 0.486 | 0.486 | 0.955 | 0.726 | 1.44
13 | QDLRLYRPHLA [BTK_Y617_G613D] | 0.578 | 0.548 | 0.363 | 0.467 | 0.505 | 0.358 | 0.931 | 0.474 | 1.17 | 0.571 | 0.488 | 0.5 | 0.517 | 0.555 | 0.581 | 0.728
14 | GMAHNYRNSSQ [AASS_Y188] | 0.589 | 0.414 | 0.418 | 0.47 | 0.446 | 0.371 | 0.45 | 0.386 | 0.434 | 0.313 | 0.431 | 0.384 | 0.255 | 0.57 | 0.482 | 0.702
15 | DEDFLYREELA [POR_Y575_YF] | 1.17 | 0.44 | 0.489 | 0.594 | 0.443 | 0.536 | 1.21 | 0.487 | 1.15 | 0.763 | 0.725 | 0.544 | 0.506 | 0.793 | 0.448 | 0.916
16 | CLAKMYFSAVE [CP_Y539_D544E_YF] | 1.22 | 0.663 | 0.514 | 0.552 | 0.822 | 0.599 | 1.35 | 0.721 | 1.19 | 0.848 | 0.909 | 0.602 | 0.589 | 0.834 | 0.621 | 1.09
17 | AVAFLYFKSIG [ADGRL4_Y301_V300L_YF] | 1.14 | 0.516 | 0.478 | 0.649 | 0.483 | 0.549 | 1.62 | 0.441 | 1.33 | 0.851 | 0.837 | 0.605 | 0.683 | 1.07 | 0.569 | 0.806
